The source of these data is CN108285485A (WULUMUQI HENGKANG ZHIYUAN BIOTECHNOLOGY CO LTD, dated 2018).

To fix the notation:
B1: His-VHH-H5-c-Myc (VHH)
VHH: QVQLQESGGGSVQAGGSLRLSCAASGSTVRRRCMGWFRQAPGKEREEVAIVDNEGIEQYADFVKGRFTISRDNAKNTLYLQMNSLKPEDTAMYYCAMAPGYTPTGCLVYNTWGQGTQVTVSS
notes: Bactrian camel VHH expressed from pET22b in BL21(DE3); not shown: His tag, named only in the construct name; c-Myc tag, named only in the construct name
B2: His-VHH-B7-c-Myc (VHH)
VHH: QVQLQESGGGSVQAGGSLRLSCVASQYTYNTVGWFRQAPGKEREGVAGIYNGGDQTYYSESAKGRFTISQDNAKRTVYLQMNSLKPEDTAMYYCAAGRLIVSGRWSMTKEEYQYWGQGTQVTVSS
notes: as for B1
B3: His-VHH-H12-c-Myc (VHH)
VHH: QVQLQESGGGSVQAGGSLRLSCAVSGGTTRRRCMGWFRQAPGKEREEVASYDNQGIIKYADFVKGRFTISRDNAKNTLYLQMNTLKPEDTAMYYCAMAPGYDNRGCLVYNTWGQGTQVTVSS
notes: as for B1

The target of the test is PD-1蛋白 (程序性死亡受体-1). As to the kind of experiment: non-competitive ELISA, PD-1 coated at 2, 1, 0.5 and 0.25 μg/ml, KA=(n-1)/(nAb'-Ab).
Chain of PD-1蛋白 (程序性死亡受体-1) (chain, as listed by the source): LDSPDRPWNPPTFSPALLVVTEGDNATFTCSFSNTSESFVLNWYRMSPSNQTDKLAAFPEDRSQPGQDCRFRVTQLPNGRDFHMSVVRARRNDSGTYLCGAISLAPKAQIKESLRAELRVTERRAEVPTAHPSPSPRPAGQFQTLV
Regarding B1, the Ka was found to be 2.62e+11 M⁻¹. B2 returned a Ka of 2.31e+11 M⁻¹. The molecule B3 had a Ka of 4.79e+11 M⁻¹.
